# Measurements from paper PMC4587554.
# Biological target: Pf12 (His26 to Ser321) (Plasmodium falciparum) (UniProt C6KSX0)
# Assay: ITC; Pf12 10 μM in the sample cell; full length Pf41 or Pf41ΔID 100 μM added in 16 injections of 2.4 μL, 180 s apart; 25°C; one-site model; single experiment representative of two
substance,measurement,value
"Pf41 full length (mature, Lys21 to Ser378) (from UniProt Q8I1Y0 21-378) (natural protein)",Kd,27.7 nM
same,dH,-33.9 kcal/mol
same,stoichiometry N,0.85 Pf41:Pf12
